Three substances from publication PMC6057488 can be followed below.

The target of experiment [1] is mouse DNGR-1 on B3Z-mDNGR-1-Syk reporter cells (mouse) (UniProt Q8BRU4).
Experiment [2] has as its target DNGR-1 on cDC1s (mouse (endogenous in MutuDC1940 cells and splenic cDC1s)) (UniProt Q8BRU4). Kind of experiment: flow cytometry on cells; red fluorescent streptavidin beads, uncoated or coated with F-actin or F-actin and myosin II, with GFP-expressing MutuDC1940 cells for 2 hr at 37°C; with isotype control or anti-DNGR-1 antibody 1F6.

As to “in vitro polymerized F-actin (from UniProt P68135 1-377) (natural protein)”, the NFAT β-galactosidase reporter activity of B3Z-mDNGR-1-Syk cells, titration of in vitro polymerized F-actin in experiment [1] was > 1 µM.

“beads coated with biotinylated F-actin and myosin II (from UniProt P68135 1-377; Q28641 1-1938; P02602 1-192; P02608 1-170) (complex)”: the percent of MutuDCs associated with beads in experiment [2] is < 50%.

Turning to “F-actin and myosin II complexes (from UniProt P68135 1-377; Q28641 1-1938; P02602 1-192; P02608 1-170)”, the NFAT β-galactosidase reporter activity of B3Z-mDNGR-1-Syk cells, titration of an equimolar mixture of F-actin and myosin II against F-actin alone in experiment [1] was determined as 2 log.
